Test results: publication PMC4958273, “Expression and preliminary characterization of human MICU2” (Biology Open, 2016)

Target: the molecule itself
Assay: SEC-MALS; Ca2+-bound condition (5 mM CaCl2); protein at 0.5-2.5 mg/ml, 200 µl injected, KW-G and KW-803 columns, 0.5 ml/min; monomer to dimer

B1: MICU2-NΔ84-CΔ28 (domain or fragment, human, UniProt Q8IYU8 84-406, looked up)
chain: SLRKQRFMQFSSLEHEGEYYMTPRDFLFSVMFEQMERKTSVKKLTKKDIEDTLSGIQTAGCGSTFFRDLGDKGLISYTEYLFLLTILTKPHSGFHVAFKMLDTDGNEMIEKREFFKLQKIISKQDDLMTVKTNETGYQEAIVKEPEINTTLQMRFFGKRGQRKLHYKEFRRFMENLQTEIQEMEFLQFSKGLSFMRKEDFAEWLLFFTNTENKDIYWKNVREKLSAGESISLDEFKSFCHFTTHLEDFAIAMQMFSLAHRPVRLAEFKRAVKVATGQELSNNILDTVFKIFDLDGDECLSHEEFLGVLKNRMHRGLWVPQHQS
notes: human MICU2 (BC031089.1), N-terminal deletion starting at amino acid 84, the C-terminal 28 amino acids deleted; lacks Cys413; Predicted molecular weight ~40 kDa; source: E. coli BL21 (DE3); purified (Ni-NTA, SEC) for MALLS; in lysate (cells mixed and sonicated together) for the pull-down; not shown: His-tag, N-terminal, kept
B1 was tested, and the “stoichiometry N” value was 2.
